B1: oG*/C‡ duplex (Table S1 entries 3 and 5) (dsDNA)
DNA 1: AGCGTCCAGGTCTACC
DNA 2: TGGTAGACCTGGACGC
modifications: strand 1 G9 = photocaged 8-oxoguanine (oG*); strand 2 C9 = N4-modified cytosine (C‡) for disulfide cross-linking
B2: oG/C‡ duplex, uncaged in crystallo by 365 nm light (dsDNA)
DNA 1: AGCGTCCAGGTCTACC
DNA 2: TGGTAGACCTGGACGC
modifications: strand 1 G9 = 8-oxoguanine (oG) after photodeprotection; strand 2 C9 = N4-modified cytosine (C‡), disulfide to Cys149

Key:
[1] = biological target: T1, hOgg1 N149C (8-oxoguanine DNA glycosylase) (Homo sapiens, UniProt O15527 12-327, N149C); test: X-ray crystallography; disulfide cross-linked complex, dark (G*Odark), 2.81 A; Complex formation: 20 mM Tris-HCl, 100 mM NaCl, 1 mM EDTA pH 7.4, on ice overnight (12 nmol DNA, 24 nmol protein in 1.2 ml); purified by anion exchange and SEC; crystallized at 13 mg/ml; conditions: protein: recombinant; tags: His-tag (pET28a, NdeI/XhoI); 5' overhang 1 nt on each strand
T1 sequence (O15527 12-327 N149C): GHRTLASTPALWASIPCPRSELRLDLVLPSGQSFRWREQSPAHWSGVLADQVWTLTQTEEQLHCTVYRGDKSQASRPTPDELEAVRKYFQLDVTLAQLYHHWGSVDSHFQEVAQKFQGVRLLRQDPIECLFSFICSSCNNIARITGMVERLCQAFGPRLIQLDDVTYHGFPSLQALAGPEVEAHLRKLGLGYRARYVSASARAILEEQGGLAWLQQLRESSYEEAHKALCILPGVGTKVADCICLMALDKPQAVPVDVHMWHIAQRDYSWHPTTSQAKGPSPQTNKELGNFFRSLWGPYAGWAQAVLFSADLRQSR

[2] = biological target: T1, hOgg1 N149C (8-oxoguanine DNA …); test: X-ray crystallography; disulfide cross-linked complex, illuminated 365 nm (95 J) and cryotrapped (G*Olight), oG in active site at 68% occupancy, Ca2+ present, 2.48 A; Complex formation: 20 mM Tris-HCl, 100 mM NaCl, 1 mM EDTA pH 7.4, on ice overnight (12 nmol DNA, 24 nmol protein in 1.2 ml); purified by anion exchange and SEC; crystallized at 13 mg/ml; conditions: protein: recombinant; tags: His-tag (pET28a, NdeI/XhoI); 5' overhang 1 nt on each strand

| Binder | binding result [1] | binding result [2] |
| --- | --- | --- |
| B1 | binds | – |
| B2 | – | binds |
